Where no end group is shown, it is not given here.
What was measured:
PAK4 = target: T1, PAK4 (Homo sapiens, UniProt Q9NQU5); assay: In vitro kinase assay, activation loop peptide as PAK4 substrate; type: biochemical
T1 construct: made in house; host or cells: 293 cells (transient transfection, immunopurified) or bacteria (GST fusion)
Procedure: (§1) Three days after transfection with the STE20-related kinase expression contructs, a 10 cm plate of 293 cells was washed with PBS and solubilized on ice with 2 mL PBSTDS containing phosphatase inhibitors (10 mM NaHPO4, pH 7.25, 150 mM NaCl, 1% Triton X-100, 0.5% deoxycholate, 0.1% SDS, 0.2% sodium azide, 1 mM NaF, 1 mM EGTA, 4 mM sodium orthovanadate, 1% aprotinin, 5 μg/mL leupeptin). Cell debris was removed by centrifugation (12000× g, 15 min, 4° C.) and the lysate was precleared by two successive incubations with 50 μL of a 1:1 slurry of protein A sepharose for 1 hour each. One-half mL of the cleared supernatant was reacted with 10 μL of protein A purified kinase-specific antisera (generated from the GST fusion protein or antipeptide antisera) plus 50 μL of a 1:1 slurry of protein A-sepharose for 2 hr at 4° C. The beads were then washed 2 times in PBSTDS, and 2 times in HNTG (20 mM HEPES, pH 7.5/150 mM NaCl, 0,1% Triton X-100, 10% glycerol).
The immunopurified kinases on sepharose beads were resuspended in 20 μL HNTG plus 30 mM MgCl2, 10 mM MnCl2, and 20 μCi […] (3000 Ci/mmol). The kinase reactions were run for 30 min at room temperature, and stopped by addition of HNTG supplemented with 50 mM EDTA. The samples were washed 6 times in HNTG, boiled 5 min in SDS sample buffer and analyzed by 6% SDS-PAGE followed by autoradiography. […]

PAK5 = target: T2, PAK5 (Homo sapiens, UniProt O96013); assay: In vitro kinase assay, activation loop peptides as PAK5 substrates; type: biochemical; conditions: for substrate: peptide substrates at 2.5 μM
T2 construct: made in house; host or cells: 293 cells (transient transfection, immunopurified on protein A sepharose) or bacteria (GST fusion)
Procedure: as §1
The immunopurified kinases on sepharose beads were resuspended in 20 μL HNTG plus 30 mM MgCl2, 10 mM MnCl2, and 20 μCi […] (3000 Ci/mmol). The kinase reactions were run for 30 min at room temperature, and stopped by addition of HNTG supplemented with 50 mM EDTA. The samples were washed 6 times in HNTG, boiled 5 min in SDS sample buffer and analyzed by 6% SDS-PAGE followed by autoradiography. Phosphoamino acid analysis was performed by standard 2D methods on ^32P-labeled bands excised from the SDS-PAGE gel.
Similar assays were performed on bacterially expressed GST-fusion constructs of the kinases.
20 mM Hepes pH 7.2, 130 mM KCl, 10 mM MgCl2, 1 mM NaF, 20 mM B-glycerolphosphate, 0.5 mM DTT, 50 μM ATP, 0.5 μCi ^32PyATP.
Substrates: MBP at 0.28 mg/mL and peptide substrates derived from PAK5 activation loop at 2.5 μM.
To aid in the development of in vitro kinase assays for screening small molecule libraries to identify specific inhibitors, the search for specific peptide substrates for PAK5 was undertaken.
The rationale used to design such peptides is based on the hypothesis that upon binding activated small G protein, PAK5 undergoes a conformational change that results in derepression of its kinase activity followed by autophosphorylation on the activation loop resulting in a fully active kinase. The site of autophosphorylation for related family members has been identified by biochemical and/or genetic means (e.g. Wu, C, et al. J.Biol.Chem 270:15984-15992 and Szczepanowska, et al. Proc.Natl.Acad.Sci 94, 8503-8508, 1997). Specific peptide substrates for PAKS were designed from the sequence of the activation loop of this kinase.

T2 sequence (O96013 whole entry, the tested form may be a part): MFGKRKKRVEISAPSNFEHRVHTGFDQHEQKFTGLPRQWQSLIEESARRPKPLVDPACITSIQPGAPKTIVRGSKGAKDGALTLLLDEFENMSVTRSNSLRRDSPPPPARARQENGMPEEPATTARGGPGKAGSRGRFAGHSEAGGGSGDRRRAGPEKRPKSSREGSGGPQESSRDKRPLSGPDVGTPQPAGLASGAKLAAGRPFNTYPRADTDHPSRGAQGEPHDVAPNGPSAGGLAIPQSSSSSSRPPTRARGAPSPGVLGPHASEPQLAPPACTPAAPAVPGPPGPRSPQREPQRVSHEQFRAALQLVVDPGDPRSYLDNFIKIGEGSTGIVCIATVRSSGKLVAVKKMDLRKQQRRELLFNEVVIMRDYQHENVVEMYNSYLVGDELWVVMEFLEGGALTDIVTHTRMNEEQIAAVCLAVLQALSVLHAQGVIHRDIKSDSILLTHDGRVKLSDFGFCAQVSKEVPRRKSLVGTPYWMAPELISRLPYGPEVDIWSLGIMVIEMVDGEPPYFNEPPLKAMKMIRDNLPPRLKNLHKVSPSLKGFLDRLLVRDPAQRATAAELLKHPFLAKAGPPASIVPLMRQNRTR
T1 sequence (Q9NQU5 whole entry, the tested form may be a part): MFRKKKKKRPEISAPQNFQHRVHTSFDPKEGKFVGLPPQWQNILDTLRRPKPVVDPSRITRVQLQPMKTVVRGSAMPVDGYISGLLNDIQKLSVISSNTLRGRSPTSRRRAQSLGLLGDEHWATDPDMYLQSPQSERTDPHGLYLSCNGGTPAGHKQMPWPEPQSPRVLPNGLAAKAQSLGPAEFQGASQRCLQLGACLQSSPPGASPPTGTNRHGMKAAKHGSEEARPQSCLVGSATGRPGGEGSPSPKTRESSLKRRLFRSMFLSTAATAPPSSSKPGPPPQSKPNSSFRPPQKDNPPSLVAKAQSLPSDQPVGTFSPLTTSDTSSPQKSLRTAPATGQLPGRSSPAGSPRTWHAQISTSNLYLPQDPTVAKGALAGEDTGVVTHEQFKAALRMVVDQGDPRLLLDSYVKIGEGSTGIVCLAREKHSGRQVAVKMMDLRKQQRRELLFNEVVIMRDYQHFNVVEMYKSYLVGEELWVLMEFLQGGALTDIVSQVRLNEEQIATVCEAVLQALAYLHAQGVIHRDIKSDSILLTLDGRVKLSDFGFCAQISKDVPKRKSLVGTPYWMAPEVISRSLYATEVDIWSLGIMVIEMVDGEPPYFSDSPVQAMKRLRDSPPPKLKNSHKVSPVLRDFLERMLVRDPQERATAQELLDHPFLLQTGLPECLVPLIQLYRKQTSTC

With “(C) RRKSLVGTPYWMAPE (CRRKSLVGTPYWMAPE; N-terminal cysteine) [Peptide 10]” the “Notes: Km for PAK4 compared with PAK5” value (PAK4) was “Same Km as phosph. by PAK5” and the substrate (PAK4) was “yes”.

“(C) RRKSLVGTPYWMAPE [1] (CRRKSLVGTPYWMAPE; N-terminal cysteine) [Peptide 1]” was tested, and the “Notes: substrate quality relative to MBP or other peptides” value (PAK5) was “Equally well as MBB” and the substrate (PAK5) was “yes”.

For “(C) RRKSLVGTPYWMAPE [2] (CRRKSLVGTPYWMAPE; also: phosphorylated residue) [Peptide 2, phosphorylated residue marking not visible]”, the Km (PAK5; Notes column) was 1 to 10 µM and the substrate (PAK5) was “yes”.

“(C) RRKSLVGTPYWMAPE [3] (CRRKSLVGTPYWMAPE; also: phosphorylated residue) [Peptide 3, phosphorylated residue marking not visible]” was tested, and the substrate (PAK5) was “no”.

In the case of KRKSFIGTPYWMAPE [Peptide 4], the “Notes: substrate quality relative to MBP or other peptides” value (PAK5) is reported as “Similiar to peptide 1” and the substrate (PAK5) is reported as “yes”.

KRNTFVGTPFWMAPE [Peptide 5] was tested, and the substrate (PAK5) was “poor”.

In the case of PANSFVGTPYWMAPE [Peptide 6], the substrate (PAK5) is reported as “poor”.

In the case of RNKVRKTFVGTPCWMAPE [Peptide 9], the substrate (PAK5) is reported as “poor”.

“RRNTFIGTPYWMAPE (also: phosphorylated residue) [Peptide 8, phosphorylated residue marking not visible]” was tested, and the “Notes: substrate quality relative to MBP or other peptides” value (PAK5) was “Better than 7”.

RRNTFIGTPYWMAPE [Peptide 7] was tested, and the substrate (PAK5) was “poor”.

Reference: patent US6680170B2, “Polynucleotides encoding STE20-related protein kinases and methods of use” (Sugen, Inc., priority 1998, dated 2004)
